Assay results from doi:10.1101/2022.09.29.510132 (bioRxiv, 2022).

Experiments:
[1] = target: T1, E6AP AZUL (UniProt Q05086 24-87); experiment: NMR titration; unlabeled UBQLN1 constructs added to 0.05 mM 15N-E6AP AZUL; 1H-15N HSQC; Buffer E (10 mM MOPS pH 6.5, 50 mM NaCl, 5 mM DTT, 10 μM zinc sulfate), 25 °C; conditions: both partners purified
T1 construct: AZUL domain of E6AP/UBE3A; Used unlabeled or 15N-labeled; source: expressed and purified as described previously (Buel et al., 2020)
T1 sequence: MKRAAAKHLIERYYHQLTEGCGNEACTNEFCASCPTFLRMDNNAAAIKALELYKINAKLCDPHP

[2] = target: T2, UBQLN2 (UniProt Q9UHD9 1-624); experiment: recruitment to phase-separated droplets (confocal fluorescence microscopy, in vitro); 50 µM UBQLN2 construct with 25 µM AZUL-mEGFP or EGFP in 20 mM NaPO4, 200 mM NaCl, 2.5 µM ZnSO4 (pH 6.8) at 37 °C; conditions: both partners purified
T2 construct: UBQLN2 full-length construct; Phase separates into droplets at 37 °C with 200 mM NaCl; also called UBQLN2 full-length; source: E. coli BL21 (DE3), purified (glutathione sepharose, PreScission cleavage, SEC); not shown: GST, N-terminal, cleaved

B1: UBQLN1 UBA (541-589) (domain or fragment, UniProt Q9UMX0 541-589, looked up)
chain: QNPEVRFQQQLEQLSAMGFLNREANLQALIATGGDINAAIERLLGSQPS
notes: The construct contains a tyrosine residue in the tag to enable quantitation at A280; source: E. coli BL21 (DE3), purified (glutathione sepharose, PreScission cleavage, SEC); not shown: GST, N-terminal, cleaved
Does B1 bind [1]?
Result: binds

B2: AZUL-mEGFP (domain or fragment, UniProt Q05086 24-87, looked up)
chain: MKRAAAKHLIERYYHQLTEGCGNEACTNEFCASCPTFLRMDNNAAAIKALELYKINAKLCDPHP
notes: E6AP isoform II residues 24-87 (AZUL); AZUL and mEGFP are separated by a TEV protease cut site; A206K is numbered relative to avGFP (A207K relative to EGFP); also called E6AP isoform II 24-87 with a C-terminal mEGFP; source: E. coli BL21 (DE3), purified (glutathione sepharose, PreScission cleavage, SEC); not shown: GST, N-terminal, cleaved; mEGFP (EGFP with A206K), C-terminal, kept
Does B2 bind [2]?
Result: binds
